Tests used:
TMR-α-casein [1] = assay: On-chip protease assay by fluorescence polarization of TMR-α-casein substrate, lab-on-a-chip with optical chopper; type: biochemical; conditions: 1 μM TMR-α-casein final in channel; reaction time 5.1 seconds; FIGS. 10A-10D
Procedure: Next, the protease assays were carried out using an apparatus for measuring fluorescence polarization including the optical chopper of FIG. 2 on a lab-on-a-chip of glass composed of a channel 1 C1, in which substrates or enzymes flowed, and a channel 2 C2, in which the reaction occurred, the channels having a depth of 12 μm and a width of 79 μm as depicted in FIG. 8.
For on-chip protease assays, the substrates and the enzymes should mix completely prior to the enzyme reactions. […] […] Therefore, the reaction time was confirmed to be 5.1 seconds after mixing of the substrate with the enzymes.
Subsequently, to carry out the protease assays in the lab-on-a-chip,2 μM of TMR-α-casein (the final concentration in the channel was 1 μM) was placed in a substrate reservoir and the respective proteases were placed in an enzyme reservoir at increasing concentrations in the same manner as the comparative example. Then, the two substances were allowed to flow into a channel 2 C2, a main channel, to cause a reaction. Fluorescence polarization FP was then measured at the detection point, positioned 32 mm away from the junction, from which the substrates and the enzymes flowed in.
Again, it was noted that fluorescence polarization values plateaued when the concentration of the enzymes reached at the point generating a specific rate or more.

TMR-α-casein [2] = assay: Protease assay by fluorescence polarization of TMR-α-casein substrate, commercial fluorescence spectrometer; type: biochemical; conditions: time course, varying enzyme concentrations (unit/mL); FIGS. 9A-9D
Procedure: Changes of fluorescence polarization FP were measured using the method and apparatus for measuring fluorescence polarization of the present invention, employing TMR-α-casein as a substrate, composed of TMR as a fluorescent probe and α-casein, a universal protein substrate reacted with various proteases.
First, TMR-α-casein, a fluorescently labeled substrate for proteases, was prepared by applying one of the well-known methods [Analytical Biochemistry (,1996) 243, 1-7] as follows.
10 mg/mL of α-casein (sigma) and 5 mg/mL of 5-carboxytetramethylrhodamine succinimidyl ester were mixed in 0.1 M sodium bicarbonate buffer solution (pH 9.0) for reaction at room temperature for two and a half hours. The resulting TMR-α-casein was purified by passing the reaction mixture over a HiTrap desalting column (Sephadex G-25 Amersham Bioscience), and used after quantitation of the amounts of protein and fluorescence.
Proteinase K, trypsin, papain and elastase were used as proteases to react at increasing concentrations. First, as a comparative example, the process that the TMR-α-casein substrate was degraded by the proteases was analyzed using a commercial fluorescence spectrometer (Perkin Elmer). […]

Molecule	change of fluorescence polarization values of TMR-α-casein with enzyme concentration (TMR-α-casein [1])	change of fluorescence polarization values of TMR-α-casein as the reaction proceeded (TMR-α-casein [2])
papain: protease reacted with TMR-α-casein substrate (protein, UniProt P00784 134-345, looked up) Papain: IPEYVDWRQKGAVTPVKNQGSCGSCWAFSAVVTIEGIIKIRTGNLNEYSEQELLDCDRRSYGCNGGYPWSALQLVAQYGIHYRNTYPYEGVQRYCRSREKGPYAAKTDGVRQVQPYNEGALLYSIANQPVSVVLEAAGKDFQLYRGGIFVGPCGNKVDHAVAAVGYGPNYILIKNSWGTGWGENGYIRIKRGTGNSYGVCGLYTSSFYPVKN	decreased with increasing concentrations	decreased
proteinase K: protease reacted with TMR-α-casein substrate (protein, UniProt P06873 106-384, looked up) Proteinase K: AAQTNAPWGLARISSTSPGTSTYYYDESAGQGSCVYVIDTGIEASHPEFEGRAQMVKTYYYSSRDGNGHGTHCAGTVGSRTYGVAKKTQLFGVKVLDDNGSGQYSTIIAGMDFVASDKNNRNCPKGVVASLSLGGGYSSSVNSAAARLQSSGVMVAVAAGNNNADARNYSPASEPSVCTVGASDRYDRRSSFSNYGSVLDIFGPGTSILSTWIGGSTRSISGTSMATPHVAGLAAYLMTLGKTTAASACRYIADTANKGDLSNIPFGTVNLLAYNNYQA	decreased with increasing concentrations	decreased

From US20070117220A1, “METHOD AND APPARATUS FOR MEASURING FLUORESCENCE POLARIZATION IN LAB-ON-A-CHIP” (priority 2005, published 2007)
